Reference: patent publication US20210292396A1

Experiments:
Test in all cases: cell-based or functional assay
[1] = target: HIV Env of isolate 25710-2.43 (HIV)
[2] = target: Env of HIV isolate ZM109.4 (clade C) (HIV)
[3] = target: HIV Env of isolate 16055-2.3 (HIV)
[4] = target: HIV Env of isolate 0077.v1.c16 (HIV)
[5] = target: HIV Env of isolate ZM106.9 (HIV)
[6] = target: HIV Env of isolate CAP45.G3 (HIV)
[7] = target: Env of HIV isolate R1166.C1 (clade AE) (HIV)
[8] = target: HIV Env of isolate A03349M1.vrc4a (HIV)
[9] = target: Env of HIV isolate 16845-2.22 (clade C) (HIV)
[10] = target: Env of HIV isolate QH0692.42 (clade B) (HIV)
[11] = target: Env of HIV isolate 0921.v2.c14 (clade C) (HIV)
[12] = target: Env of HIV isolate CNE19 (clade BC) (HIV)
[13] = target: Env of HIV isolate Q769.h5 (clade A) (HIV)
[14] = target: Env of HIV isolate ZM197.7 (clade C) (HIV)
[15] = target: Env of HIV isolate CNE57 (clade B) (HIV)
[16] = target: HIV Env of isolate ZM53.12 (HIV)
[17] = target: HIV Env of isolate 3168.v4.c10 (HIV)
[18] = target: Env of HIV isolate CNE4 (clade B) (HIV)
[19] = target: HIV Env of isolate MW965.26 (HIV)
[20] = target: HIV Env of isolate ZM135.10a (HIV)
[21] = target: Env of HIV isolate ZM214.15 (clade C) (HIV)
[22] = target: Env of HIV isolate 6540.v4.c1 (clade AC) (HIV)
[23] = target: Env of HIV isolate X2088.c9 (clade G) (HIV)
[24] = target: Env of HIV isolate KER2008.12 (clade A) (HIV)
[25] = target: Env of HIV isolate P1981.C5.3 (clade G) (HIV)
[26] = target: Env of HIV isolate CNE58 (clade C in Table 7) (HIV)
[27] = target: Env of HIV isolate 286.36 (clade C) (HIV)
[28] = target: Env of HIV isolate CNE40 (clade BC) (HIV)
[29] = target: Env of HIV isolate PVO.04 (clade B) (HIV)
[30] = target: Env of HIV isolate KNH1209.18 (clade A) (HIV)
[31] = target: Env of HIV isolate 3817.v2.c59 (clade CD) (HIV)
[32] = target: Env of HIV isolate CNE15 (clade BC) (HIV)
[33] = target: Env of HIV isolate JRCSF.JB (clade B) (HIV)
[34] = target: Env of HIV isolate CNE20 (clade BC) (HIV)
[35] = target: HIV Env of isolate CH119.10 (HIV)
[36] = target: Env of HIV isolate CNE10 (clade B) (HIV)
[37] = target: Env of HIV isolate 6101.10 (clade B) (HIV)
[38] = target: Env of HIV isolate 6471.v1.c16 (clade C) (HIV)
[39] = target: Env of HIV isolate HT593.1 (clade B) (HIV)
[40] = target: Env of HIV isolate DU172.17 (clade C) (HIV)
[41] = target: Env of HIV isolate C4118.09 (clade AE) (HIV)
[42] = target: HIV Env of isolate A07412M1.vrc12 (HIV)
[43] = target: Env of HIV isolate X1193.c1 (clade G) (HIV)
[44] = target: Env of HIV isolate UG037.8 (clade A) (HIV)
[45] = target: Env of HIV isolate 25925-2.22 (clade C) (HIV)
[46] = target: HIV Env of isolate CH117.4 (HIV)
[47] = target: Env of HIV isolate T250-4 (clade AG) (HIV)
[48] = target: HIV Env of isolate 191821.E6.1 (HIV)
[49] = target: Env of HIV isolate BG505.W6M.C2 (clade A) (HIV)
[50] = target: Env of HIV isolate ZM249.1 (clade C) (HIV)

B1: ePGT121.15 (ePGT121.15.H6 VH and ePGT121.15.L1 VL) (antibody, V domains shown)
VH: QMQLQESGPGLVKPGETLSLTCSVSGASISSSYWSWLRETPGKGLEWIGYTHHSGDTNYAPSLKSRVHLGLHPSKNQVSLSLTSVTAADTAVYYCARTLHGRRIYGVVAFNEFFTYFYWEVWGKGTQVTVSS
VL: SDISVAPGETVRISCGGESIGSRAVQWYQHRAGQAPKLIIYNNQDRPPGIPERFSGSPDIDFGTTATLTITNVEAGDEATYYCHIWDSRRPTNWVFGGGTTLTVL
What does the source list for B1?
IC80, pseudovirus neutralization [1]: 0.021 µg/mL; IC50, pseudovirus neutralization [2]: 3.37 µg/mL; IC80, pseudovirus neutralization [3]: 0.211 µg/mL; IC80, pseudovirus neutralization [4]: > 50 µg/mL; IC80, pseudovirus neutralization [5]: 0.006 µg/mL; IC80, pseudovirus neutralization [6]: 24.1 µg/mL; IC50, pseudovirus neutralization [7]: > 50 µg/mL; IC80, pseudovirus neutralization [8]: 0.019 µg/mL; IC50, pseudovirus neutralization [9]: 0.077 µg/mL; IC50, pseudovirus neutralization [10]: 0.015 µg/mL; IC50, pseudovirus neutralization [11]: 0.454 µg/mL; IC50, pseudovirus neutralization [12]: 0.004 µg/mL; IC50, pseudovirus neutralization [13]: > 50 µg/mL; IC50, pseudovirus neutralization [14]: > 50 µg/mL; IC50, pseudovirus neutralization [15]: 0.004 µg/mL; IC80, pseudovirus neutralization [16]: 0.062 µg/mL; IC80, pseudovirus neutralization [17]: 0.075 µg/mL; IC50, pseudovirus neutralization [18]: 0.004 µg/mL; IC80, pseudovirus neutralization [19]: 0.009 µg/mL; IC80, pseudovirus neutralization [20]: 0.508 µg/mL; IC50, pseudovirus neutralization [21]: 0.028 µg/mL; IC50, pseudovirus neutralization [22]: > 50 µg/mL; IC50, pseudovirus neutralization [23]: 0.003 µg/mL; IC50, pseudovirus neutralization [24]: 0.01 µg/mL; IC50, pseudovirus neutralization [25]: 0.002 µg/mL; IC50, pseudovirus neutralization [26]: 0.023 µg/mL; IC50, pseudovirus neutralization [27]: 0.002 µg/mL; IC50, pseudovirus neutralization [28]: 0.028 µg/mL; IC50, pseudovirus neutralization [29]: 0.006 µg/mL; IC50, pseudovirus neutralization [30]: 0.003 µg/mL; IC50, pseudovirus neutralization [31]: 0.984 µg/mL; IC50, pseudovirus neutralization [32]: 3.52 µg/mL; IC50, pseudovirus neutralization [33]: 0.008 µg/mL; IC50, pseudovirus neutralization [34]: 0.003 µg/mL; IC80, pseudovirus neutralization [35]: 0.016 µg/mL; IC50, pseudovirus neutralization [36]: 0.004 µg/mL; IC50, pseudovirus neutralization [37]: 0.002 µg/mL; IC50, pseudovirus neutralization [38]: 1.04 µg/mL; IC50, pseudovirus neutralization [39]: 0.008 µg/mL; IC50, pseudovirus neutralization [40]: 0.003 µg/mL; IC50, pseudovirus neutralization [41]: > 50 µg/mL; IC80, pseudovirus neutralization [42]: 0.012 µg/mL; IC50, pseudovirus neutralization [43]: 0.003 µg/mL; IC50, pseudovirus neutralization [44]: 0.004 µg/mL; IC50, pseudovirus neutralization [45]: 0.007 µg/mL; IC80, pseudovirus neutralization [46]: > 50 µg/mL; IC50, pseudovirus neutralization [47]: 0.002 µg/mL; IC80, pseudovirus neutralization [48]: 3 µg/mL; IC50, pseudovirus neutralization [49]: 0.066 µg/mL; IC50, pseudovirus neutralization [50]: 0.249 µg/mL
